T1: soluble ICAM-R (Homo sapiens, UniProt P32942)
T1 construct: made in house; host or cells: Sf-9 insect cells, recombinant baculovirus (pBBIII.ICAM-Rt1), purified on Lentil Lectin Sepharose
T1 sequence (P32942 30-485 limits assumed): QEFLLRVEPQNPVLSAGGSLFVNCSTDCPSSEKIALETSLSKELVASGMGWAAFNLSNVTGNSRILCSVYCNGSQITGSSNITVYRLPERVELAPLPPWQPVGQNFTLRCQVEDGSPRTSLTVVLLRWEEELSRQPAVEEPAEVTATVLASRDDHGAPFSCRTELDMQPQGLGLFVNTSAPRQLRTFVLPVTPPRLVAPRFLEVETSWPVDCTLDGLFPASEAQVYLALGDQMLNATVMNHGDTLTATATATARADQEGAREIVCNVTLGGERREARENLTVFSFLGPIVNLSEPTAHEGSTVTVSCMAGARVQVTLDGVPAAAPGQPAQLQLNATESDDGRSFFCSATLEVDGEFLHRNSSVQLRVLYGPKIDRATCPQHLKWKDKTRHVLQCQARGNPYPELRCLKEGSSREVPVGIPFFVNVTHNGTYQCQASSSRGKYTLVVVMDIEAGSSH


Columns and labels:
soluble ICAM-R = target: T1, soluble ICAM-R; test: ELISA binding to soluble ICAM-R coated onto plastic; settings: serially diluted purified antibody; 50% maximal binding
Protocol: Nine of the purified anti-ICAM-R monoclonal antibodies were diluted serially and assayed in an ELISA format for binding to a fixed amount of soluble ICAM-R (Example 9) coated onto plastic. The results of the assay are presented in Table 3 below wherein high affinity binding was defined as 50% maximal binding at a monoclonal antibody concentration of less than 1 μg/ml and low affinity binding was defined as 50% maximal binding at a monoclonal antibody concentration of greater than 1 μg/ml.

[1] = system: binding of JY cells (CD18+) to recombinant soluble human ICAM-R; test: JY cell adhesion to recombinant soluble human ICAM-R; type: cell-based; settings: for Inhibition (%) of total CD18-dependent binding: antibody 10 μg/ml, PMA-treated JY cells, total = adhesion blocked by anti-CD18 60.3
Protocol: The partially purified shICAM-R protein was assayed for binding to SKW3 cells that were pretreated with phorbol ester as described in Example 7 to activate LFA-1-dependent adhesion. The ICAM-R protein was coated onto 96-well Immulon 4 (Dynatech) plates after adjusting the lectin eluate to 25 mM carbonate pH 9.6 and incubated overnight at 4° C. The plates were washed two times with PBS, blocked for 30 minutes at 37° C. with 200 ul/well PBS, 1% BSA, and washed again with PBS before adding cells. SKW3 cells were washed in serum-free RPMI (Gibco), labelled with Calcein-AM (Molecular Probes), and stimulated with PMA. Cells were then added to the plates and incubated for 1 hour at 37° C. The plates were inverted in prewarmed PBS, 1% BSA and were incubated for 30 minutes. The plates were then removed and half of the contents of each well was aspriated. The plates were then scanned with a fluorescence microscope and an automated fluorescence reader.
ICAM-R specific monoclonal antibodies listed in Table 11 in Example 22 were tested for their ability to inhibit binding of JY cells (CD18^+) to recombinant soluble human ICAM-R. Adhesion assays were performed as described in Example 9. Cells were treated with PMA and antibodies were then added at a final concentration of 10 μg/ml. Data was collected from triplicate wells during three independent experiments. Total CD18-dependent binding was determined as the amount of adhesion blocked by a control anti-CD18 monoclonal antibody 60.3. The percentage of total CD18-dependent binding that was inhibited by each monoclonal antibody is shown below in Table 4 wherein the names assigned to monoclonal antibodies produced by each hybridoma are given and “ND” indicates the antibody was not tested. The monoclonal antibody names are used throughout the following examples instead of hybridoma designations.

human PBL = test: SEA-induced aggregation of PBL; type: cell-based; settings: versus plate-bound B-H9
[2] = system: PBMC responder and irradiated stimulator cells; test: Alloantigen-induced lymphocyte proliferation; type: cell-based, human
Protocol: Monoclonal antibodies to ICAM-R were also tested for the ability to alter lymphocyte proliferation (as measured by ^3H-thymidine incorporation) in response to alloantigenic irradiated stimulator cells. Responder cells were prepared by obtaining PBMC from a normal donor using Histopaque centrifugation as described above. To prepare stimulator cells, PBMC from a second, unrelated donor were concurrently isolated and irradiated at 1500R by exposure to a gamma emitting cesium source. Two hundred thousand responder cells and 2×10^5 irradiated stimulator cells (suspended in culture medium) were then added to wells containing soluble or immobilized ICR-1.1, ICR-2.1, ICR-3.1, ICR-4.2, ICR-5.1, ICR-6.2, ICR-7.1, ICR-8.1, ICR-9.2, immobilized B-H9, immobilized p10.1, or soluble 515F (anti-rat CD18) antibody and incubated for 6 days at 37° C., 5% CO2. Lymphocyte proliferation (^3H-thymidine incorporation) was assessed in the last 18-24 hours of culture.

| Molecule | Affinity (soluble ICAM-R) | Blockade of Adhesion of JY Cells to Soluble ICAM-R [1] | Inhibition (%) of total CD18-dependent binding [1] [%] | SEA-induced cell aggregation, plate-bound antibody (human PBL) | Blockade of Lymphocyte Activation Alloantigen [2] | alloantigen proliferation, immobilized antibody ([2]; 6 days) | alloantigen proliferation, soluble antibody ([2]; 6 days) |
| --- | --- | --- | --- | --- | --- | --- | --- |
| ICR-1.1: anti-ICAM-R monoclonal antibody, IgG2a, domain 1, ATCC HB 11053 (antibody, V domains shown) VH: QVQLQQSGAELAKPGASVKMSCKASGYTFTVYWMHWVKQRPGQGLEWIGYINPNTDYTEYNQRFQDKATLTADKSSSTAYMQLSSLTSEDSAVYYCARWGGNSYGLDYWGQGTSVTVSS VL: QIVLTQSPALMSASPGEKVTMTCSASSSVSYIYWYQQKPRSSPKPWIYLTSNLASGVPARFSGSGSGASYSLTISIMEAEDAATYYCQQWKSIPLTFGAGTKLELK | Low (50% maximal binding at a monoclonal antibody concentration of greater than 1 μg/ml) | YES | 45 | almost complete | YES | consistently reduced proliferation |  |
| ICR-8.1: anti-ICAM-R monoclonal antibody, IgG1, domain 1, ATCC HB 11232 (antibody, V domains shown) VH: EIQLQQTGPELVKPGASVKISCKASGYSFTDCIILWVKQSHGKGLEWIGKINPYFGTTTYNLKFKGKATLTVDKSSSTAHMQLNSLTSEDSAVYYCARKEAYPDAMDYWGQGTSVTVSS VL: DAVMTQTPLSLPVSLGDQASISCRSSQSLVHSNGDTYLHWYLQKPGQSPQLLIYKVSNRFSGVPDRFSGSGSGTDFTLKLSRVEAEDLGVYFCSQSTHVPYTFGGGTKLEIK | High (50% maximal binding at a monoclonal antibody concentration of less than 1 μg/ml) | YES | 75 |  | YES | consistently reduced proliferation | inhibited alloantigen-stimulated proliferation |
